Laboratory results: the DeepSol protein solubility set

Assay: soluble on expression in E. coli; label from the status in PepcDB or PDB records

Soluble on expression in E. coli, not soluble:
MGSDKIHHHHHHMKEKERLIIEMAMKLFATKGVNATSVQEIVTACGISKGAFYLYFKSKEELLLATLRYYYDKIQNKMMDIEKESLLPREKFAKQLHCQFNDIQKHKEFIIMHARENAIPFNKEVEEFMMRMKLESHAFYRNSLLSIYGDKVMPYLLDLVIMVEGICRGYLELIILQAPEIDLSYVSAFILKRVDHLVDGLVKSSEEPVLHEERLGEFLCKSELIKEQVKEHFLKEIIVFKRTLADQLEDEELLVTLDVLEAEMRMQNPRIPVIQGMLFNLEAYPTLKEFRLRLMGYYNIKR, MGSDKIHHHHHHMKESLRILHINDLHSHFEAYPKIKRFFAEHSKTQREVLRFDIGDNVDKSHPLTDVSAGRVNVDLMNDLGIDFATIGNNEGIGLAKAEINQLYHKADFQVILGNLRDKKGRPTWAQPYVIYETKAGTKLALLAYTFPYYWTYVPNGWQVLDAISSLKKDLENPEVAAADFRILLSHLGIRLDEKIARQVPEIDLIIGAHTHHVFEEGEVVNGTYLAAAGRYGDHVGQIDLDFEDHSLTNIAIEAVPTSDLDSEKEDAAFVAHLFEEGEKLLAENLICKLSRQPSLKECADLVMEAMKKSAAADLAIINTGLVVEPFSQNLTKADLHKSLPHQMRLVKFQVTQTELLEICHDIFSQADLLANQQIRGMGFRGKQFGKVVTSGFTYKNGKIVYNNKAIGRKDKMSLVLVDQYYFAPYFNSLTSRKGQLLFPDLLRQTVEKYLRGDL, MGSDKIHHHHHHMKFPGQRKSKHYFPVKNRDPLLAQLTLQPQHISTHISGIDQTLVDIEAKVGDDLLSRYALPKGNSTLIDDEKAHQLYTELKSSELISDEFAGGTIGNTVHNYSILADDRSVLFGVMSNHIEVGSYAYRYLCNTSSKVDLNFLQPVDGPIGRCFTLISECGERTFAISKGSMDKLTPEYIDQEIVQTSSALVLTAYLMRASGGDKITDAALKAIEYAKAADVPVVLTLGTRFLIEEDPQWWIDFIKENVTILAMNEDEGEALTGFKDPLSASNAALEWCDMVLTTAGPLGLYTAGYTEDSEKRETSHTLLPGAIPEFNRYEFSRPKLKRDCQTPIKVFAHISPYMGGPEIIRNTNGAGDGALAALLHDLASNTYHKANVPGSSKHKRDGLCYSSFSQICKYANRVAYEVLAQHSPRLSRGLPEREDSLEEAYWER, MGSDKIHHHHHHMKGIDVSSYQGTIAWGKVKWAGVQFAILKIIRKDLNPDKTFEQNWQGCTEAGMPIQGVYNYSYATTTEKAKTDAKRVIEVLAGRKTFVWLDVEDRCQQGLGQTLIDIINTYQSEIKTAGLEFGVYTGLSFYNTYILPYANQINCPFWIARYPSTKGMTIGDDPNDAKKPAIAHSLYGWQYTSAFTCSGLNNSTDANLLYVELGTKDTTAASQPVSAPVKPNNESWKGDIDYYLESEEVRKWQHAMNVGFDLKGADALKEDGKFGADSQAFAKSHNLWNGQKHYCPTAIKWLRRTLHDVYSFTKLDTDYKEWSDYLSKCVMVFQKNRGLTQDARVGLLTTYRLLKG, MGSDKIHHHHHHMKGQLFVICGPSGAGKTSIIKEVLKRLDNVVFSVSCTTRPKRPHEEDGKDYFFITEEEFLKRVERGEFLEWARVHGHLYGTLRSFVESHINEGKDVVLDIDVQGALSVKKKYSNTVFIYVAPPSYADLRERILKRGTEKEADVLVRLENAKWELMFMDEFDYIVVNENLEDAVEMVVSIVRSERAKVTRNQDKIERFKMEVKGWKKL, MGSDKIHHHHHHMKHAFLIIAHNEYPVLEVLLSMLDDERNDIYLHIDKRATELFQQIKKVKMQKAGFYLIENPIKVYWGDISQVQVEYLLFETALSHGPYAYYHLLSGTDLPIKSQDYIHAFFQQNAGKEFVGFWQDAAHQRDLERKVFRYYFFTKRLKDKEHLLHGITALIRNLILAVQKISHYRRKQTFEFKKGGNWISITENAVKYLLQYKEIVLNRMKYTLCADEIFIQTILWNSPFRERMHCTNNANTGSMREIDWEHGSPYIWQDHDYQTLINSNKIFARKFNSNQMGVVYKIQKLYLKQVPK, MGSDKIHHHHHHMKHTLLIKDWLYSFLSLWFPRCCVVCGGSLAKGEECICTMCNINLPRTDYHLRKDNPVEKLFWGKFPLERATSFFFYRKGSDFRQVLHQLKYGGQKEIGAIMGRYMASELQASDFFHGVDVIIPIPLHKKKQQIRGYNQSEWISRGIMAVTGIPVDTEAIIRRKNTETQTQKSALERWENVDGIFELHRSEYLAGKHILIVDDVLTTGATTVACASRLAEIEGVRISVLTLAMAE, MGSDKIHHHHHHMKIARLNLWHVPLTSHTAYYMADGKTCDTVETVVIAVQTDTGITGWGEVCPIPHYLPAYARGVAPALTELAPVILGADPVGVGALMERVDAVLHGHPYAKSALDIALWDITGQVAGLPLHALLGGWRAADMPLYHSITCIAPDDMARIAREAQAQGITQFQVKLGASGDWQTDVERLAKVREAVGPGPLVYGDWNCGATSLEAIRVGRAVAQLDIMLEQPCATLEDCARVQRATGLPMKIDELAHDTASLLTAHRLGIMDAVALKLSKFGGLSTTRRARDLCLHLGARMCIEDTWGSDITTAALLHLGAASEPGRVLNVCDLSGYVAPRLAPDAPVRANGRIAPPEGAGLGITVDRGALGVPDLILD, MGSDKIHHHHHHMKIAVTGKGGVGKSTIVGMLARALSDEGWRVMAIDADPDANLASAIGVPAERLSALLPISKMTGLARERTGASETTGTHFILNPRVDDIPEQFCVDHAGIKLLLMGTVNHAGSGCVCPEHALVRTLLRHILTKRKECVLIDMEAGIEHFGRGTIEAVDLLVIVIEPGSRSLQTAAQIEGLARDLGIKTICHIANKLASPVDVGFILDRADQFDLLGSIPFDSAIQAADQAGLSCYDLSPACRDKAHALMAALLERVGPTQGVS, MGSDKIHHHHHHMKIDDKTGLVLEGGGMRGVFTCGVLDYMMDKKVWFPYGVGVSAGACNGLSYMSRQRGRAKFSNIDLLEKYHYIGIKHLWRKHSILDQELLYEHFPKEILPYDYKTYAENPARFEMVTTNCITGRACYLEEKHDPRRIIAIAKASSSLPYVCPIAYVDGEPMLDGGIVDSIPVLRAIEQGFDKNVVVLTRNRGYRKKGKDMKIPHFIYKKYPRLRVVLSKRCRIYNEQLDLVEQLEDKGRIVVIRPEKPMEVDRIETDIKKLTDLYEEGYACAKKMFEEKRILQK, MGSDKIHHHHHHMKIGAVLTREQVISARYVHHGLLTPFPDPLVAAQRLAGVQAQILPAAGLALWNRVAGFSADQLEHLLYHERSLVRLWGQRGTLHLYAMTDWPLVYGMQAGQATYWEQEAQRDGWAVDEYEAFIARVGDLLYEHETLGRSDLRRLLPAIDQRHLSGWGGVFAILTRRGLACHAAPRGGEARMTHRLRWRPDLVWEPPDTDTANAEMLRRYLAVFGPVRLVDMTCWRGRTQAEMKRWLALIGEEVVRVSVDGQPAWWLQSYLDRLADLPTPADLPPHLLGRFDPLLLGTRDKSWLIDADVYNRVWRPAGHIEATMLVHGRIAGTWRYDWRGSSIVVTLRPFKPLPPSERIRIESLAAGVAEHFAAPLGDCRWEAVA, MGSDKIHHHHHHMKIGVIQASTRTDLNQLLFEAVKQAAGNQHEIVNFGVFPQETENYSYVEVAIMISLLIETGAIDFMVSGCSSGQGMMMACNSLPGLQAGFIQTPQDAFLFGRINNGNVASLSLGLNFGWAGELNLQYALNELFHGEFGIGYPPEVAERKREEAQLLLTLNDITKKSFLEIIDQLDKALLFKILKRKDLTAYLFDYGSNSLLLERLQFFRN, MGSDKIHHHHHHMKIKCIITDDEPIARKGLRGYIEKVDFLTLTGECEDAVQLNTILKTQEIDLLFLDIEMPEMTGIELLSNLTNPPKVIIVSAYEQYALKGYEFNVVDYLLKPVSFDRFIKSVNKIYDLLQTEQKEKNDYIFVKSNKLLKKILFKDILYIESMENYVVIQTVSCKEVVYTTLKQLNDSLPKDVFQQTHRSYIVNLEKVTAIDGNQLTLSSYKIPVARTFRDSIFNLILNNRLIIKS, MGSDKIHHHHHHMKILFVAPGWPRGRLWGELGFKFPSLALAALAAVTPPEWDAALCDESRETIDFNAPCDLVAITAMTPQAPRAYEIAAGFRARGKTVVMGGFHASNLPDEALGHVDAVVVGEGELSWPLLLADFQAGRLQRLYRSPGLLPMASIPVARREIFAGKGYLLTNTLQTTRGCPFDCEFCSVTAFYGRKYRERPVEAVLAELETLRKANSFAFFVDDNLVADRRYALPLFRGMKGMGFKWLSHAPIDFAGDEELMRAAGESGCIGMFVGFESLDQEALAAMGKVTNSSSAFLDQARKFRDHGIGILGSFVLGYDGDTPDSFGRILRFCEEARIEAAIFPILTPYPGTAVRRRLEAEGRITSNDWRDYDMGHVTFRPTGMTARELQDGHDWLNRSFYSFGSMWRRIGKLHRSVQVFGPMNLGFRSAIRKSDKTKAS, MGSDKIHHHHHHMKISICGKGGCGKSSITTLLAKEFAKKGHNVLVIDGDESNLSLHKLLGMDLPKDFIEYLGGRKEFMKKLREKMDGKEVELFEGEISIDSLPKEYLVEKDNIKLLAIGKIHDFGEGCACPMGALLREFLKSLKLKDKEVVIVDTEAGIEHFGRGVEGGCDVIIAIIDPTYESIRLSKKIEEIGEKLGKKVYFIVNKVDDETKDLILENVNKDKVIAVIPNNKEIMKCGLMGEELNAELSEIKDVVEILTK, MGSDKIHHHHHHMKIVKFGGSSLSSGVQIRKVFQIVKSDPERRIVVVSAPGKRFKGDVKITDLLLKLAEAILNEEKTAQIYEQIFLRYQAIGDFFKIPRSGIEQLKEHLYSVAQADYPSNDFFRAALSAQGENMSAHLITLIFKQLGLKARLLTPKEVGLTVSGEARKAQILPGSYAKIAKTKFTDNEVLIFPGFFGITKNGLINTFSRGGSDITGAILARGFGADLYENFTDVDSIYAVNPGLVADPAPIKEMTYNEMRELSYAGFAVFHDEAILPAIQGKIPICVKNTNRPEMPGTKIVPRDKVSHKNKITGIASSHHFQAIYLHRYLINREVGFTAKILKIMADLNISYEHMPSGIDDLTIILDKNQLTNGRKEKLTQRIKDEIQPDDLQWRNDYAIIMVVGEGLVNRVGAMADIVDPIRDAGISLTMVNQGSSEISIMLGVRPEDEQKAVKAIYNDHFENGHPKKELQIPRASFKSVSKSLIANFFV, MGSDKIHHHHHHMKKKFQLEVPGGADKVLLHTCCAPCSSAIIECLMQHGVTPVIYYCNPNIYPLEEYIIRKDECTRYAQSLGLEIIDADYDHDAWRCRMAGMEQEPERGGRCLRCFKMRLQETARYAHEHGFPVITTTLASSRWKSLEQIEEAGRYATAPYPDVTYWEQNWRKGGLSERRIAIIKEYNFYNQQYCGCEFSMRKEEKGG, MGSDKIHHHHHHMKKLRVPHRTKSARVVQELVRLAAGLAASGSRVEDAFWENCLTAKIHAQLRTGDDQNLESALDQLYDTDPGGYSEFMYAIEAAIECSIFTRGNHTYDVLMLAVPMLTWSRFSIPSGLIAESVLSELRGQLQVQVLADDAQLALADCLFSPDQLPRGYHLTHELARKLWSTAVTGQRDLHMNPRQLPETGRFLSDTRYLLGGIAVPQGKPMFRWQQGTAGEHKGSNVSALQFSKEQILHAWQTHGTAVLLPLFQGCAFELLMPDGFFSAWRAADRLARPYSVRATVDFLETTLGISPDRLRAVIAPFYDQWLEEYRIGFTLKDRDSVLYGIIWGLVGDEDENTDSVAQIEAALRECGVTQTILLQEHFLLEYCEECGGPLFPNVNGEIVHAEFPEEGEVAPIHLH
